PMC4451130

How the values were obtained:
[1] = biological target: Fibrinogen (FG), human plasma, plasminogen-depleted (human) (UniProt P02671); experiment: ELISA
[2] = biological target: Glu-plasminogen (Plg) (human); experiment: ELISA
Chain of Glu-plasminogen (Plg) (human) (P00747 20-810): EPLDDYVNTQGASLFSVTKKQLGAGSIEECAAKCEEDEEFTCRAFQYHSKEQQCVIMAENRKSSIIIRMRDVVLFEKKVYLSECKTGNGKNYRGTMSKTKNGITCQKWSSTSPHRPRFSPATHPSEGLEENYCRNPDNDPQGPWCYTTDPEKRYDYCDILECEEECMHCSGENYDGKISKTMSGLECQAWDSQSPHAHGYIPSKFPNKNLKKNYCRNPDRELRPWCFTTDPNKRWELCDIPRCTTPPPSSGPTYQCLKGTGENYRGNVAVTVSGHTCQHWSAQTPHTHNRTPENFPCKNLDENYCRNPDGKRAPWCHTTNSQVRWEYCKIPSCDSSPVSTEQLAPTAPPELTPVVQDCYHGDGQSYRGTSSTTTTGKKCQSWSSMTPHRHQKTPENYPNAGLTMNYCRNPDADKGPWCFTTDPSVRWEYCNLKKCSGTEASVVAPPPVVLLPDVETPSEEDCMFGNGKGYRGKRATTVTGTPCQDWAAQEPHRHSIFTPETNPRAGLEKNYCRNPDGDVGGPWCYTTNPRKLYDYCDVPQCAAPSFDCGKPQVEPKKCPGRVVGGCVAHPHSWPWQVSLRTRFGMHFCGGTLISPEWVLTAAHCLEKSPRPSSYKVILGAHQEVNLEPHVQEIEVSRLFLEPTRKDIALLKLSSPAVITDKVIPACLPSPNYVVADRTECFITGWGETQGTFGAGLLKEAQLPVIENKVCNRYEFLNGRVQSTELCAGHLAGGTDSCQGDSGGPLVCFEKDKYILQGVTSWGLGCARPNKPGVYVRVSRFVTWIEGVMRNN

Chain of UniProt P02671 (P02671 36-866, chain 1 of 3): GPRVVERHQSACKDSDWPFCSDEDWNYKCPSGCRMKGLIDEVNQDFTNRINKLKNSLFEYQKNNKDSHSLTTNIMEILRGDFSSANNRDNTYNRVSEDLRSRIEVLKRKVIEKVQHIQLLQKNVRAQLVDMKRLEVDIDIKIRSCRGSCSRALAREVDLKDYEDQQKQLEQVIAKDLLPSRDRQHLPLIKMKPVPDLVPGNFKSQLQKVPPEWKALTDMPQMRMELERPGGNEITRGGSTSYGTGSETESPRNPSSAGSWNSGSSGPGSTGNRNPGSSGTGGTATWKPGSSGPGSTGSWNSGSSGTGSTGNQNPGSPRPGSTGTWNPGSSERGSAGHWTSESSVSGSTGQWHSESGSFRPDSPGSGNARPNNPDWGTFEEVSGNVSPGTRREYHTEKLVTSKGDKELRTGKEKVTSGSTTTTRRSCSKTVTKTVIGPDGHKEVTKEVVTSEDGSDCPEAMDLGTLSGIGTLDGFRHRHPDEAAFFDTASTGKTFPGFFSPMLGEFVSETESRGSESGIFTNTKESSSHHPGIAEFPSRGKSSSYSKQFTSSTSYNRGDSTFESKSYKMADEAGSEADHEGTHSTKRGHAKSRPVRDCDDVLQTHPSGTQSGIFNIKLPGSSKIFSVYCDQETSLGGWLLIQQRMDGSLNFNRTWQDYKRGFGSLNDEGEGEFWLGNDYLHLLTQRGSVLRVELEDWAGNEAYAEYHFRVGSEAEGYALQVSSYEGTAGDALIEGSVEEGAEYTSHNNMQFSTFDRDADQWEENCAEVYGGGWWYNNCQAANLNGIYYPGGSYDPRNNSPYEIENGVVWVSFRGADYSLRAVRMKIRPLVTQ
Chain of UniProt P02671 (P02675 45-491, chain 2 of 3, further chain): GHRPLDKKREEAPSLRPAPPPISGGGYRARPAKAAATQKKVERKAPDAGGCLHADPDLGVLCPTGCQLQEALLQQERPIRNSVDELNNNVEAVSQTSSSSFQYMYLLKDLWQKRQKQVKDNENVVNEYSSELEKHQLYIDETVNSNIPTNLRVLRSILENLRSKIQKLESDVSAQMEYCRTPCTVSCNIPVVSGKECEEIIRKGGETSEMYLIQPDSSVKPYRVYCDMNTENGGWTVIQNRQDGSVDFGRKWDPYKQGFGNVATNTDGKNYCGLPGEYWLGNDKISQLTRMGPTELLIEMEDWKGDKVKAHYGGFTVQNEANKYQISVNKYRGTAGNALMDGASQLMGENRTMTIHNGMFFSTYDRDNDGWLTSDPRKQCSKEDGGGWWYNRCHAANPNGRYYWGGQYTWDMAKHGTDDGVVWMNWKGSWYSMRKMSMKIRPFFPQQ
Chain of UniProt P02671 (P02679 27-453, chain 3 of 3, further chain): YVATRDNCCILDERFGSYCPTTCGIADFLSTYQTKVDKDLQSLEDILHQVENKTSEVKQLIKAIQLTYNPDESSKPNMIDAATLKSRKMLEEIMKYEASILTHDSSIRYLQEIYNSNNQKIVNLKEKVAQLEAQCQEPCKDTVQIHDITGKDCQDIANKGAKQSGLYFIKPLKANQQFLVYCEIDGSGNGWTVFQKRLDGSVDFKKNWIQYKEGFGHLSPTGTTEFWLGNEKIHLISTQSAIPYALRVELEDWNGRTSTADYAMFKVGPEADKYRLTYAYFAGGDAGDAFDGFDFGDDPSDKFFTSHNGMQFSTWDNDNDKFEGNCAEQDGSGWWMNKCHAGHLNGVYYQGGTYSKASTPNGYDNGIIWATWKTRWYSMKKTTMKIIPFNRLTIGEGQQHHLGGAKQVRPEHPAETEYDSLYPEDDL

Kd [1]: 31.2 nM
Kd [2]: 66.7 nM
Substance: Biotin-conjugated PTX3 (b-PTX3) (from UniProt P26022 18-381) (natural protein)
